Results published in PMC5758886.

Columns and labels:
[1] = target: AcrIIA1 selenomethionyl L52M mutant (Listeria monocytogenes prophages); assay: crystal structure
[2] = target: AcrIIA1 (native wild type) (Listeria monocytogenes prophages); assay: SEC
[3] = target: AcrIIA1 (native wild type) (Listeria monocytogenes prophages); assay: crystal structure

AcrIIA1 selenomethionyl L52M mutant (natural protein)
stoichiometry N [1]: 2

AcrIIA1 (native wild type) (natural protein)
stoichiometry N [2]: 2
stoichiometry N [3]: 2
